Laboratory results from patent publication US20080096222A1 (BRIGHAM AND WOMEN S HOSPITAL, published 2008).

Legend:
GST alone = biological target: T1, GST alone (UniProt P08515 1-218 = GST); experiment: GST pulldown from lysates of myc-haspin-transfected cells
T1 construct: Control protein
Method: (§1) For immunoprecipitation, cells are suspended in 50 mM Tris/0.5 M NaCl/1% Triton X-100/1% DOC/0.1% SDS/2 mM EDTA, pH 7.4 (buffer L) with 1 μg/ml pepstatin/1 μg/ml leupeptin/1 μg/ml antipain/1 μg/ml chymostatin/1 mM phenylmethylsulphyl fluoride/1 mM NaF/0.1 μM okadaic acid and lysed by shearing 15 times through a 21 gauge needle. Insoluble material is removed by centrifugation for 15 min at 13,000 rpm and the lysates precleared with protein G-Sepharose and concentrations equalized based on Bradford assay (Bio-Rad). Lysates are incubated with antibodies for 1.5 h at 4° C. before addition of protein G-Sepharose for a further 1.5 h. Beads are washed 4 times with buffer L and thrice with Hepes-buffered saline, pH 7.4 (HBS). For GST pulldown assays, cells are lysed in 20 mM Tris/1% Triton X-100/1 mM EDTA/1 mM DTT, pH 7.4 (buffer T) containing 0.3 M NaCl and protease and phosphatase inhibitors as above, clarified, and precleared with glutathione-Sepharose. […]
(§2) To examine the interaction of haspin with H3, we utilized the H3-GST fusion proteins in “pulldown” assays from lysates of myc-haspin-transfected cells. In the conditions of the assay, myc-haspin bound to H3-GST, whereas the binding of myc-haspin to GST alone, H2B-GST and H4-GST was not detected.

[1] = biological target: T2, H2B-GST (residues 1-35 of human H2B fused to GST) (human, UniProt P62807 2-36); experiment: as above
T2 construct: range 1-35; not shown: glutathione S-transferase (GST) encoded by vector pETGEX-CT
Method: as §1, §2

T1 sequence (P08515 whole entry): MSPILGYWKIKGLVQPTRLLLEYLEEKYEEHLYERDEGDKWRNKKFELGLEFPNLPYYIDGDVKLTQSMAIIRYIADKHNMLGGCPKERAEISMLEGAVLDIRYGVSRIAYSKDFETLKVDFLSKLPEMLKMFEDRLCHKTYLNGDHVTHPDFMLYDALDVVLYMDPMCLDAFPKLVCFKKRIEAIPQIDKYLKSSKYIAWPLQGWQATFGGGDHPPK
T2 sequence (P62807 2-36): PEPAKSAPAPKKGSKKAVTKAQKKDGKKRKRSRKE

B1: myc-tagged human haspin (enzyme)
chain: AASLPGPGSRLFRTYGAADGRRQRRPGREAAQWFPPQDRRRFFNSSGSSDASIGDPSQSDDPDDPDDPDFPGSPVRRRRRCPGGRVPKDRPSLTVTPKRWKLRARPSLTVTPRRLGLRARPPQKCSTPCGPLRLPPFPSRDSGRLSPDLSVCGQPRDGDELGISASLFSSLASPCPGSPTPRDSVISIGTSACLVAASAVPSDLHLPEVSLDRASLPCSQEEATGGAKDTRMVHQTRASLRSVLFGLMNSGTPEDSEFRADGKNMRESCCKRKLVVGNGPEGPGLSSTGKRRATGQDSCQERGLQEAVRREHQEASVPKGRIVPRGTDRLERTRSSRKSKHQEATETSLLHSHRFKKGQKLGKDSFPTQDLTPLQNACFWTKTRASFSFHKKKIVTDVSEVCSIYTTATSLSGSLLSECSNRPVMNRTSGAPSSWHSSSMYLLSPLNTLSISNKKASDAEKVYGECSQKGPVPFSHCLPTEKLQRCEKIGEGVFGEVFQTIADHTPVAIKIIAIEGPDLVNGSHQKTFEEILPEIIISKELSLLSGEVCNRTEGFIGLNSVHCVQGSYPPLLLKAWDHYNSTKGSANDRPDFFKDDQLFIVLEFEFGGIDLEQMRTKLSSLATAKSILHQLTASLAVAEASLRFEHRDLHWGNVLLKKTSLKKLHYTLNGKSSTIPSCGLQVSIIDYTLSRLERDGIVVFCDVSMDEDLFTGDGDYQFDIYRLMKKENNNRWGEYHPYSNVLWLHYLTDKMLKQMTFKTKCNTPAMKQIKRKIQEFHRTMLNFSSATDLLCQHSLFK
notes: Expressed in transfected HEK293 or HeLa cells and used from cell lysates; also called myc-haspin; full-length haspin; not shown: myc tag encoded by the pcDNA3-derived plasmid pCANmyc1
GST alone
  binding result: no binding
[1]
  binding result: no binding
